The source of these data is patent US20090318342A1, “Compounds” (IMPERIAL INNOVATIONS LIMITED, priority 2005, published 2009).

In one assay the target is T1, gelatinase A (MMP-2) (Homo sapiens, UniProt P08253).
T1 sequence (P08253 110-660): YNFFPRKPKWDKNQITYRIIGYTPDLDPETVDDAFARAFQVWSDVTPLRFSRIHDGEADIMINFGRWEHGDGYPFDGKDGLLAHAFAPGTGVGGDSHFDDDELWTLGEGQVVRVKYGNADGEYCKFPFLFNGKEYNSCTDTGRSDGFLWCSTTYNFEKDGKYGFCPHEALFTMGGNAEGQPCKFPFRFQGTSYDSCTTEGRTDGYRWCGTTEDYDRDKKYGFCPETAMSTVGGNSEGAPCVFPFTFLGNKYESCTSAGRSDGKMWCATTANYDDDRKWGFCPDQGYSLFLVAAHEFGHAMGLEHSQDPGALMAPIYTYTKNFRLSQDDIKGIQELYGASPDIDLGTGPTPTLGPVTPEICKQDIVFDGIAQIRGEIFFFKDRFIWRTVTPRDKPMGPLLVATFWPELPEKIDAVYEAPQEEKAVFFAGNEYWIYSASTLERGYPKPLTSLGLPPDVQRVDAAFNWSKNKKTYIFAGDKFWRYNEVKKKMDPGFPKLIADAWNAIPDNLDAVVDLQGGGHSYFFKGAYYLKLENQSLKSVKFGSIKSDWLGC
As to the kind of experiment: Enzyme inhibition kinetic study, MMP-2. In kind it is biochemical. The settings on record: for Ki: read-out: Ki(app) MMP-2. On the procedure:
Enzyme inhibition kinetic studies—Inhibition kinetic studies for MMPs and TACE were carried out as described previously (19, 27) with modifications. Purified N-TIMP-3 and mutants were dialyzed against 20 mM Tris-HCl (pH 7.0), 50 mM NaCl containing 20% glycerol, centrifuged at 14,000 rpm for 10 min to remove any precipitate, and protein concentration was re-measured before conducting inhibition assays. Since NaCl inhibits the activity of the TACE ectodomain in vitro (28), we adjusted the final concentration of NaCl to 1 mM in all assays with TACE. Equal volumes (10% of total assay volume) of diluted solutions of N-TIMP-3 and mutants were added to TACE assays, resulting in a final pH of 8.8.
(Eq. 1) Tight binding inhibition:
where v is the experimentally determined reaction velocity, v0 is the uninhibited activity, E is enzyme concentration, I is inhibitor concentration, K is the apparent inhibition constant (Ki^(app)) and h is the Hill coefficient.
Inhibitory properties of mutants with purified metalloproteinases—The inhibitory activities of wild-type N-TIMP-3 and the two mutants were determined with MMPs representing four different sub-groups: full-length collagenase 1 (MMP-1), gelatinase A (MMP-2), and the catalytic domains of stromelysin 1 (MMP-3(ΔC)) and membrane-type 1 MMP (MMP-14). As previously reported for the corresponding mutants of N-TIMP-1 and TIMP-2 (17, 18), both mutations in N-TIMP-3 reduced the inhibitory activity towards the four MMPs by 2 to 3 orders of magnitude (Table I). FIG. 2A highlights the difference in inhibition of MMP-14(CD) by wild-type and mutated N-TIMP-3.
Ki(app) determinations for MMP-1, MMP-2 and MMP-3 were performed as set out in Example 1.

Assay [1] concerns monocyte-derived macrophages (MDM). Description: TNFα release by monocyte-derived macrophages (ELISA). In kind it is cell-based, human. Particulars: for EC50: 10 ng/ml LPS, read-out: EC50 for inhibition of LPS stimulated TNFα release by MDM; for Effect on basal TNFα release by MDM: no LPS. The method, then: FIG. 9. The effect of TIMP-3 mutants on TNFα release by monocyte-derived-macrophages (MDM). […] Data is normalised to % LPS stimulation.
To address the efficacy of TMP-3 mutants on MDM, MDM from a healthy subject were cultured in the laboratory and stimulated with LPS. The effect of TIMP-3 mutants on MMP-9 activity and TNFα was measured.
This method was adapted from Dransfield et al., [7] and performed under sterile conditions. Blood was collected into EDTA (2% W/v). Dextran solution (6% w/v) was added to the whole blood in volumes of 10 ml per 20 ml blood and the final volume adjusted to 50 ml in Dulbecco's PBS. The samples were allowed to sediment at room temperature for 45 min. After sedimentation, the upper leukocyte rich layer was centrifuged at 400×g for 10 min, 4° C. and the supernatant discarded. The pellets containing the cells were resuspended in Dulbecco's PBS and centrifuged for a second time as before.
The gradient consisted of three separate concentrations of Percoll™. A ‘100% v/v’ Percoll™ solution was prepared from 90% v/v Percoll™ containing 10% v/v 10×PBS. The gradient was then prepared as follows: 4 ml 81% v/v Percoll was added to a 15 ml Falcon tube. This was overlaid by 4 ml 70% v/v Percoll. The cell pellet was resuspended in 3 ml of 55% v/v Percoll™ and then overlaid onto the pre-prepared gradient. The cells were centrifuged at 750×g for 20 min at 4° C. The peripheral blood mononuclear cells (PBMCs) were harvested from the 55%/70% interface (top layer) and the polymorphonuclear (PMN) cells remained at the 70%/81% interface (bottom layer). PBMCs were washed twice by centrifugation in sterile PBS.
PBMCs were washed in serum-containing separation buffer (sterile PBS, 0.5% w/v bovine serum albumin (BSA), 2 mM EDTA. The cells were diluted 1:100 in Kimura stain and counted using a haemocytometer. The cell pellet was resuspended with the following ratio of reagents from the monocyte isolation kit. 60 μl separation buffer, 20 μl Fc receptor (FcR) blocking reagent and 20 μl Hapten Conjugated Antibody cocktail were added to 10^7 cells and incubated at 6-12° C. for 5 min. The cells were washed twice (5 min, 4° C., 250×g) in separation buffer in a volume 10-20 times higher than the labelling volume. The cell pellet was resuspended in: 60 μl separation buffer, 20 μl FcR blocking reagent, 20 μl MACS anti-hapten microbeads and 5 μl CD15 microbeads (to remove any contaminating neutrophils) per 10^7 cells and incubated at 6-12° C. for 15 min. The cells were washed (5 min, 4° C., 250×g) and resuspended in 500 μl separation buffer. The magnetic column was prepared by washing with 3 ml separation buffer. […]
TNFα was measured using a commercially available ELISA kit and MMP-9 was measured using a Fluorokine kit.

Read-outs that look alike come from different tables or passages of the source. Bounds are passed on as bounds.

B1: (-2A)N-TIMP-3: N-TIMP-3 mutant with two alanine residues on the N-terminal side of Cysteine1 of the TIMP-3 sequence (protein)
chain: AACTCSPSHPQDAFCNSDIVIRAKVVGKKLVKEGPFGTLVYTIKQMKMYRGFTKMPHVQYIHTEASESLCGLKLEVNKYQYLLTGRVYDGKMYTGLCNFVERWDQLTLSQRKGLNYRYHLGCN
With B1, the “Inhibition of MMP-2” value with gelatinase A (MMP-2) (100 nM) is “no inhibition”. In assay [1], the half-maximal effective concentration (EC50) (in general, the concentration at which the effect is half-maximal) is around 180 nM and the “Effect on basal TNFα release by MDM” value is listed as “little effect”.

B2: N-TIMP-3: N-terminal inhibitory domain of TIMP-3 (residues 1 to 121), C-terminally His-tagged, wild-type (protein)
chain: CTCSPSHPQDAFCNSDIVIRAKVVGKKLVKEGPFGTLVYTIKQMKMYRGFTKMPHVQYIHTEASESLCGLKLEVNKYQYLLTGRVYDGKMYTGLCNFVERWDQLTLSQRKGLNYRYHLGCN
With B2, the Ki with gelatinase A (MMP-2) (Table 3) stood at 5.1 ± 1 nM. In addition, in assay [1], the concentration giving a half-maximal response (EC50) was around 180 nM and the “Effect on basal TNFα release by MDM” value is recorded as “little effect”.

B3: -1A: N-TIMP-3 mutant with the addition of an N-terminal alanine extension (-1A) (protein)
chain: ACTCSPSHPQDAFCNSDIVIRAKVVGKKLVKEGPFGTLVYTIKQMKMYRGFTKMPHVQYIHTEASESLCGLKLEVNKYQYLLTGRVYDGKMYTGLCNFVERWDQLTLSQRKGLNYRYHLGCN
B3: the Ki was above 1000 nM with gelatinase A (MMP-2) (Table 3) and 614 ± 32 nM with gelatinase A (MMP-2) (Table I, enzyme 1 nM, pH 7.5).
